Where two headings read alike, the source gives them in different places.
B1: ^coreAFG3L2^E575Q (enzyme)
chain: not shown
B2: ^coreAFG3L2^E408Q (enzyme)
chain: not shown

Experiments:
SEC [1] = molecular target: the molecule itself; test: SEC
SEC [2] = molecular target: the molecule itself; test: SEC; remark: listed apart in the source

Row | Protein | stoichiometry N (SEC [1]) | stoichiometry N (SEC [2])
1 | B1 | 6 | –
2 | B2 | – | 6
